Key:
[1] = target: T1, HER-2 expressed on human tumor cells (human, UniProt P04626 23-1255); assay: flow cytometry on SKBR3 cells, detection with anti-human IgG-phycoerythrin, MFI against Fcab concentration; flow cytometry, HER-2 on SKBR3 cells
T1 construct: whole, on cells; also called Her-2/neu; HER-2 on SKBR3, BT474 and HCC1954 cells
Method: (§1) CM-5 chips are coated with increasing concentrations of recombinant soluble HER-2 protein. […] Then, buffer is injected to measure the off-rate of the binding reaction. The binding affinity (KD) is calculated using the BiaEval software using a 1:1 stochiometry model. […] Unbound Fcab is removed by two washing steps in FACS buffer. Cell bound Fcab is detected by incubation of the cells with polyclonal anti-human IgG antibodies coupled to phycoerythrin (SIGMA) for 30 minutes on ice as recommended by the manufacturer. Again, unbound detection antibodies are removed by two washing steps as above. Fcab binding is enumerated by flow cytometry by plotting the mean fluorescence intensity against the Fcab concentrations (FIG. 1, left panel).

[2] = target: T2, recombinant soluble HER-2 protein (human, UniProt P04626 23-652, limits assumed); assay: SPR (Biacore), soluble HER-2 coated on CM-5 chip, Fcab injected at 0.8-25 ug/ml, 1:1 model; SPR, recombinant soluble HER-2 on the chip
T2 construct: Described only as 'recombinant soluble HER-2 protein'; also called recombinant HER-2
Method: as §1

EC50 [1]: 2 nM
Kd [2]: 7.5 nM
B1: Fcab H561-4 (other)
chain: TCPPCPAPELLGGPSVFLFPPKPKDTLMISRTPEVTCVVVDVSHEDPEVKFNWYVDGVEVHNAKTKPREEQYNSTYRVVSVLTVLHQDWLNGKEYKCKVSNKALPAPIEKTISKAKGQPREPQVYTLPPSRDEFFTYWVSLTCLVKGFYPSDIAVEWESNGQPENNYKTTPPVLDSDGSFFLYSKLTVDRRRWTAGNVFSCSVMHEALHNHYTQKSLSLSPGK
notes: also called Her-2 specific Fcab clone H561-4

— patent US20120276104A1 (F STAR BIOTECHNOLOGISCHE FORSCHUNGS UND ENTWICKLUNGSGES M B …, published 2012)
